Reference: article PMC10907630

Experiments:
Experiment in all cases: EMSA
[1] = test system: PG-ptau (tau 1N4R phosphorylated by PKA and GSK-3β), P10636-7; settings: EMSA: 20 nM DNA or nucleosome, 20 mM HEPES pH 7.2, 10 mM NaCl (or 150), 0.5 mM TCEP, 0.1% Tween-20, 5% sucrose, room temperature 20 min, FA: 10 nM DNA, same …
[2] = test system: tau ΔPRD-DBR (1N4R) del191-211, P10636-7; settings: EMSA: 20 nM DNA or nucleosome, 20 mM HEPES pH 7.2, 10 mM NaCl (or 150), 0.5 mM TCEP, 0.1% Tween-20, 5% sucrose, room temperature 20 min; FA: 10 nM DNA, same …
[3] = test system: tau 1N4R, P10636-7; settings: Hill fit, EMSA: 20 nM DNA or nucleosome, 20 mM HEPES pH 7.2, 10 mM NaCl (or 150), 0.5 mM TCEP, 0.1% Tween-20, 5% sucrose, room temperature 20 min, FA: 10 nM DNA, same …
Sequence of tau 1N4R, P10636-7 (P10636 other isoform, or with tags, fused parts or gaps): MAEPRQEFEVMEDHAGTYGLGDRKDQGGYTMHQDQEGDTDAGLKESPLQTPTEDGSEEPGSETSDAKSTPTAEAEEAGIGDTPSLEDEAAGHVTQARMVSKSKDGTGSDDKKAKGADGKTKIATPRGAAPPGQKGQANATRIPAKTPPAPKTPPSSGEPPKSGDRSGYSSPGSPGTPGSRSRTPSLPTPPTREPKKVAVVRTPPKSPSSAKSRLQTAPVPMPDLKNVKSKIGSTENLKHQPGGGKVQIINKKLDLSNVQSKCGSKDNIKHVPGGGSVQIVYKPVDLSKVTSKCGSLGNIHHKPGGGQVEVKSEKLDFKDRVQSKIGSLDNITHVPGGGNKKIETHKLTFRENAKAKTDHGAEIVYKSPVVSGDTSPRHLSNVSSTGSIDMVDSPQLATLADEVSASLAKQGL

Sequence of PG-ptau (tau 1N4R phosphorylated by PKA and GSK-3β), P10636-7 (P10636 other isoform, or with tags, fused parts or gaps): as above
Sequence of tau ΔPRD-DBR (1N4R) del191-211, P10636-7 (P10636 other isoform, or with tags, fused parts or gaps mutant): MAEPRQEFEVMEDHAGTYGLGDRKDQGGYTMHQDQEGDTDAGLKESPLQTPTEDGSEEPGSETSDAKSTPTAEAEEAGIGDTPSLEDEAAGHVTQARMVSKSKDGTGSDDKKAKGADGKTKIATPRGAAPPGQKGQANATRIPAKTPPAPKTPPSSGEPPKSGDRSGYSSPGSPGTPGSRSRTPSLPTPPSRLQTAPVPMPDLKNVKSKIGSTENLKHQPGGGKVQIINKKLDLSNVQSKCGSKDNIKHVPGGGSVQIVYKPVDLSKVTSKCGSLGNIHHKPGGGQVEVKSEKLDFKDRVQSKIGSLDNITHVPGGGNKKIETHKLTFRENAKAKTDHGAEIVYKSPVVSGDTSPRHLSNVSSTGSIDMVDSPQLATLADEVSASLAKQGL

Row | Sequence | Kd ([1]; 150 mM NaCl (Fig. S12 legend says 10 mM)) [nM] | Kd [1] [nM] | Kd [2] [nM] | Kd ([3]; 10 mM NaCl) [nM] | Kd ([3]; 150 mM NaCl) [nM]
1 | ACTACGCGGCCGCCCTGGAGAATCCCGGTGCCGAGGCCGCTCAATTGGTCGTAGACAGCTCTAGCACCGCTTAAACGCACGTACGCGCTGTCCCCCGCGTTTTAACCGCCAAGGGGATTACTCCCTAGTCTCCAGGCACGTGTCAGATATATACATCCTGTGCATGTAAGATCCAGT (double strand) [177 bp DNA (601)] | 426 | 241 | 410 | 135 | 188
2 | ACTACGCGGCCGCCCTGGAGAATCCCGGTGCCGAGGCCGCTCAATTGGTCGTAGACAGCTCTAGCACCGCTTAAACGCACGTACGCGCTGTCCCCCGCGTTTTAACCGCCAAGGGGATTACTCCCTAGTCTCCAGGCACGTGTCAGATATATACATCCTGTGCATGTAAGATCCAGT (double strand) [177 bp mononucleosome] |  | 166 |  | 106 | 
3 | CTGGAGAATCCCGGTGCCGAGGCCGCTCAATTGGTCGTAGACAGCTCTAGCACCGCTTAAACGCACGTACGCGCTGTCCCCCGCGTTTTAACCGCCAAGGGGATTACTCCCTAGTCTCCAGGCACGTGTCAGATATATACATCCTGT (double strand) [147 bp mononucleosome (linker-free)] |  |  |  | 83.4 | 
